Data: paper PMC11574045, “A cofactor-induced repressive type of transcription factor condensation can be induced by synthetic peptides to suppress tumorigenesis” (The EMBO Journal, 2024)

System: HEK293FT cells transfected with TF library
Assay: Screening of TF condensates based on fluorescent puncta
Type: cell-based
Details: Figure 1B numerical data; TF library screen, one value per transcriptional factor
Procedure, shortened: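 Condensate formation is scored as Alexa 488-labelled puncta after Flag- or GAL4-tag immunostaining of fixed HEK293FT cells expressing individual TFs, with a 12 h glucose-free or glucose-containing culture preceding fixation.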

B1: IFI16 (protein, UniProt Q16666 1-785, looked up)
Gamma-interferon-inducible …: MGKKYKNIVLLKGLEVINDYHFRMVKSLLSNDLKLNLKMREEYDKIQIADLMEEKFRGDAGLGKLIKIFEDIPTLEDLAETLKKEKLKVKGPALSRKRKKEVDATSPAPSTSSTVKTEGAEATPGAQKRKKSTKEKAGPKGSKVSEEQTQPPSPAGAGMSTAMGRSPSPKTSLSAPPNSSSTENPKTVAKCQVTPRRNVLQKRPVIVKVLSTTKPFEYETPEMEKKIMFHATVATQTQFFHVKVLNTSLKEKFNGKKIIIISDYLEYDSLLEVNEESTVSEAGPNQTFEVPNKIINRAKETLKIDILHKQASGNIVYGVFMLHKKTVNQKTTIYEIQDDRGKMDVVGTGQCHNIPCEEGDKLQLFCFRLRKKNQMSKLISEMHSFIQIKKKTNPRNNDPKSMKLPQEQRQLPYPSEASTTFPESHLRTPQMPPTTPSSSFFTKKSEDTISKMNDFMRMQILKEGSHFPGPFMTSIGPAESHPHTPQMPPSTPSSSFLTTKSEDTISKMNDFMRMQILKEGSHFPGPFMTSIGPAESHPHTPQMPPSTPSSSFLTTLKPRLKTEPEEVSIEDSAQSDLKEVMVLNATESFVYEPKEQKKMFHATVATENEVFRVKVFNIDLKEKFTPKKIIAIANYVCRNGFLEVYPFTLVADVNADRNMEIPKGLIRSASVTPKINQLCSQTKGSFVNGVFEVHKKNVRGEFTYYEIQDNTGKMEVVVHGRLTTINCEEGDKLKLTCFELAPKSGNTGELRSVIHSHIKVIKTRKNKKDILNPDSSMETSPDFFF
With B1 the “Z score of condensed fraction” value was -0.2342.

B2: ING1L (protein, UniProt Q9H160 1-280, looked up)
Inhibitor of growth protein 2: MLGQQQQQLYSSAALLTGERSRLLTCYVQDYLECVESLPHDMQRNVSVLRELDNKYQETLKEIDDVYEKYKKEDDLNQKKRLQQLLQRALINSQELGDEKIQIVTQMLELVENRARQMELHSQCFQDPAESERASDKAKMDSSQPERSSRRPRRQRTSESRDLCHMANGIEDCDDQPPKEKKSKSAKKKKRSKAKQEREASPVEFAIDPNEPTYCLCNQVSYGEMIGCDNEQCPIEWFHFSCVSLTYKPKGKWYCPKCRGDNEKTMDKSTEKTKKDRRSR
B2 was tested, and the “Z score of condensed fraction” value was -0.141.

B3: ARL2BP (protein, UniProt Q9Y2Y0 1-163, looked up)
ADP-ribosylation factor-like …: MDALEGESFALSFSSASDAEFDAVVGYLEDIIMDDEFQLLQRNFMDKYYLEFEDTEENKLIYTPIFNEYISLVEKYIEEQLLQRIPEFNMAAFTTTLQHHKDEVAGDIFDMLLTFTDFLAFKEMFLDYRAEKEGRGLDLSSGLVVTSLCKSSSLPASQNNLRH
With B3 the “Z score of condensed fraction” value was 1.651.

B4: IKZF1 (protein, UniProt Q13422 1-519, looked up)
DNA-binding protein Ikaros: MDADEGQDMSQVSGKESPPVSDTPDEGDEPMPIPEDLSTTSGGQQSSKSDRVVASNVKVETQSDEENGRACEMNGEECAEDLRMLDASGEKMNGSHRDQGSSALSGVGGIRLPNGKLKCDICGIICIGPNVLMVHKRSHTGERPFQCNQCGASFTQKGNLLRHIKLHSGEKPFKCHLCNYACRRRDALTGHLRTHSVGKPHKCGYCGRSYKQRSSLEEHKERCHNYLESMGLPGTLYPVIKEETNHSEMAEDLCKIGSERSLVLDRLASNVAKRKSSMPQKFLGDKGLSDTPYDSSASYEKENEMMKSHVMDQAINNAINYLGAESLRPLVQTPPGGSEVVPVISPMYQLHKPLAEGTPRSNHSAQDSAVENLLLLSKAKLVPSEREASPSNSCQDSTDTESNNEEQRSGLIYLTNHIAPHARNGLSLKEEHRAYDLLRAASENSQDALRVVSTSGEQMKVYKCEHCRVLFLDHVMYTIHMGCHGFRDPFECNMCGYHSQDRYEFSSHITRGEHRFHMS
With B4 the “Z score of condensed fraction” value was 0.01528.

B5: IKZF2 (protein, UniProt Q9UKS7 1-526, looked up)
Zinc finger protein Helios: METEAIDGYITCDNELSPEREHSNMAIDLTSSTPNGQHASPSHMTSTNSVKLEMQSDEECDRKPLSREDEIRGHDEGSSLEEPLIESSEVADNRKVQELQGEGGIRLPNGKLKCDVCGMVCIGPNVLMVHKRSHTGERPFHCNQCGASFTQKGNLLRHIKLHSGEKPFKCPFCSYACRRRDALTGHLRTHSVGKPHKCNYCGRSYKQRSSLEEHKERCHNYLQNVSMEAAGQVMSHHVPPMEDCKEQEPIMDNNISLVPFERPAVIEKLTGNMGKRKSSTPQKFVGEKLMRFSYPDIHFDMNLTYEKEAELMQSHMMDQAINNAITYLGAEALHPLMQHPPSTIAEVAPVISSAYSQVYHPNRIERPISRETADSHENNMDGPISLIRPKSRPQEREASPSNSCLDSTDSESSHDDHQSYQGHPALNPKRKQSPAYMKEDVKALDTTKAPKGSLKDIYKVFNGEGEQIRAFKCEHCRVLFLDHVMYTIHMGCHGYRDPLECNICGYRSQDRYEFSSHIVRGEHTFH
In the case of B5, the “Z score of condensed fraction” value is reported as 1.456.
